According to US20230096452A1 (SHANGHAI ESCUGEN BIOTECHNOLOGY, published 2023):
Where a chain is given by its changes, count along the chain named.

T1: mouse claudin 18.2 (mCLDN18.2) (mouse, UniProt P56857 10-264)
T1 construct: the stomach-type (A2) isoform is meant; also called m hCLDN18.2; HEK293-mCLDN18.2
T1 chain: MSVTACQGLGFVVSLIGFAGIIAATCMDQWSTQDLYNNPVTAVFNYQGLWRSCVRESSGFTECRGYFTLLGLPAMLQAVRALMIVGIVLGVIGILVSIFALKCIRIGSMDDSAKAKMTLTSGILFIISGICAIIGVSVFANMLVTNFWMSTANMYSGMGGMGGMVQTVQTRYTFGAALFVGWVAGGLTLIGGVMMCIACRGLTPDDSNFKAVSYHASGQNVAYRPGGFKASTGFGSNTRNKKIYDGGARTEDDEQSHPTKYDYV

B1: h5M9V10 humanized antibody (h5M9 VHv4 / h5M9 VLv1) (antibody, human IgG1, kappa, V domains shown)
VH: QVQLKESGPGLVAPSETLSITCTVSGFSLTTYGVQWVRQPPGKGLEWLGAIWAGGNTNYNSALMSRLTISKDNSKSQVSLKMSSLTAADTAIYYCAKGGYGNAMDYWGQGTLVTVSS
VL: DIVMTQSPSSLAVSLGERATMNCKSSQSLLNSGNQKNYLTWYQQKPGQPPKLLIYWASTRESGVPDRFSGSGSGTDFTLTISSVQAEDLAVYYCQNDYFFPFTFGQGTKLEIKR
notes: Human IgG1 (G1m17) / kappa
B2: h5M9V12 humanized antibody (h5M9 VHv4 / h5M9 VLv3) (antibody, human IgG1, kappa, V domains shown)
VH: B1 VH
VL: B1 VL with A19V, S69T, Q106S
notes: Human IgG1 (G1m17) / kappa
B3: h5M9V7 humanized antibody (h5M9 VHv3 / h5M9 VLv1) (antibody, human IgG1, kappa, V domains shown)
VH: B1 VH with L85V
VL: B1 VL
notes: Human IgG1 (G1m17) / kappa
B4: 5-M9 human-mouse chimeric monoclonal antibody (antibody, human IgG1, V domains shown)
VH: QVQLKESGPVLVAPSQSLSITCTVSGFSLTTYGVQWVRQPPGKGLEWLGAIWAGGNTNYNSALMSRLSISKDNSKSQVFLKMNSLQTDDTAIYYCAKGGYGNAMDYWGQGTSVTVAS
VL: DIVMTQSPSSLTVTAGERVTMSCKSSQSLLNSGNQKNYLTWYQQKSGQPPKLLIYWASTRESGVPDRFTGSGSGTDFTLTISSVQAEDLAVYYCQNDYFFPFTFGSGTKLEIK
notes: Mouse V regions fused to human IgG1 (G1m17) heavy chain constant region and human kappa light chain constant region; also called 5-M9-A; Chi 5-M9
B5: 9-D1 human-mouse chimeric monoclonal antibody (antibody, human IgG1, V domains shown)
VH: EIQLQQSGAELVKPGASVKISCKASGYSFTDYHMNWVRQSHGKSLEWIGNIDPYYGSPTYNHKFKGKATLTVDKSSSTAYMQLISLTSEDSAVYYCANYGRGNSFPYWGQGTLVTVSA
VL: B4 VL with R18K, K36R, S46P, I54L, F99S
notes: Mouse V regions fused to human IgG1 (G1m17) heavy chain constant region and human kappa light chain constant region; also called 9-D1-A
B6: h5M9v9 humanized antibody (h5M9 VHv3 / h5M9 VLv3) (antibody, V domains shown)
VH: B1 VH with L85V
VL: B4 VL with T12A, T14S, A15L, S22N, S46P
notes: Human IgG1 (G1m17) heavy and human kappa light constant regions
B7: 163E12 human-mouse chimeric positive control antibody (antibody, V domains shown)
VH: QIQLVQSGPELKKPGETVKISCKASGYTFTNYGMNWVKQAPGKGLKWMGWINTNTGEPTYAEEFKGRFAFSLETSASTAYLQINNLKNEDTATYFCARLGFGNAMDYWGQGTSVTVSS
VL: DIVMTQSPSSLTVTAGEKVTMSCKSSQSLLNSGNQKNYLTWYQQKPGQPPKLLIYWASTRESGVPDRFTGSGSGTDFTLTISSVQAEDLAVYYCQNDYSYPLTFGAGTKLELKR
notes: Self-made, expressed in CHOS cells, Protein A purified; also called Benchmarker; Benchmark
B8: 175D10 human-mouse chimeric positive control antibody (antibody, V domains shown)
VH: QVQLQQPGAELVRPGASVKLSCKASGYTFTSYWINWVKQRPGQGLEWIGNIYPSDSYTNYNQKFKDKATLTVDKSSSTAYMQLSSPTSEDSAVYYCTRSWRGNSFDYWGQGTTLTVSS
VL: B7 VL with L102F, A106S, L112I
notes: Self-made, expressed in CHOS cells, Protein A purified; also called Benchmark

Experiments:
[1] = target: T2, human claudin 18.2 (hCLDN18.2) (human); assay: flow cytometry on HEK293-hCLDN18.2 cells; 1 ug/mL; antibody heat treated at 70 C for 5 min
T2 construct: also called CLDN18 splice variant 2; HEK293-hCLDN18.2
Procedure: (§1) The well-grown HEK293-hCLDN18.2 stably transfected cell line and the hCLDN18.2 low-expressing KATOIII human gastric cancer cell line sorted and enriched by flow cytometry were digested with trypsin, and resuspended to adjust the cell concentration to 1.5×10⁶˜2×10⁶/mL, added to a 96-well U-plate at 100 μL/well (150,000 to 200,000 cells/well). Washing once with PBS buffer containing 1% fetal bovine serum (FBS). The antibody solution (100 μL/well) with the test concentration prepared in PBS (+1% FBS) was added, mixed with the cells, and incubated at 4° C. for 1 hour. Cells were centrifuged at 200 g and washed once with PBS (+1% FBS). […] Cells were centrifuged at 200 g and washed twice with PBS (+1% FBS), then resuspended in 100 μL of PBS (+1% FBS) for flow cytometric analysis. […] In the study of the effect of heat treatment on the binding properties of antibodies, the antibody to be tested was heat-treated at 70° C. for 5 minutes on a PCR machine, and then incubated with cells for binding.

[2] = target: T2, human claudin 18.2 (hCLDN18.2); assay: flow cytometry on HEK293-hCLDN18.2 cells; 5 ug/mL; not heat treated
Procedure: as §1

[3] = target: T2, human claudin 18.2 (hCLDN18.2); assay: flow cytometry on HEK293-hCLDN18.2 cells; 0.2 ug/mL; not heat treated
Procedure: as §1

[4] = target: T2, human claudin 18.2 (hCLDN18.2); assay: flow cytometry on HEK293-hCLDN18.2 cells; 5 ug/mL; antibody heat treated at 70 C for 5 min
Procedure: as §1

[5] = target: T2, human claudin 18.2 (hCLDN18.2); assay: flow cytometry on HEK293-hCLDN18.2 cells; 1 ug/mL; not heat treated
Procedure: as §1

[6] = target: T2, human claudin 18.2 (hCLDN18.2); assay: flow cytometry on HEK293-hCLDN18.2 cells; 0.2 ug/mL; antibody heat treated at 70 C for 5 min
Procedure: as §1

[7] = target: T2, human claudin 18.2 (hCLDN18.2); assay: cell-based or functional assay
[8] = target: T2, human claudin 18.2 (hCLDN18.2); assay: flow cytometry (direct FACS binding, equilibrium at 4 C) on HEK293-hCLDN18.2 cells
Procedure: After resuscitation of HEK293 cells (HEK293-hCLDN18.2) stably expressing CLDN18.2, they were cultured and passaged until a certain number of cells were reached. The cells were distributed to 1 mL centrifuge tubes at a density of 5×10⁴/mL, and centrifuged for use. […] To eliminate ligand depletion effects (Ligand Depletion), antibody concentration series were prepared using PBS binding buffer diluted to the corresponding ligand depletion volume. HEK293-hCLDN18.2 cells were mixed and incubated with serial concentrations of antibodies formulated to the ligand elimination volume, and incubated at 4° C. until equilibrium.

[9] = target: T3, mouse claudin 18.1 (mCLDN18.1) (mouse, UniProt P56857 1-264); assay: flow cytometry, HEK293-mCLDN18.1 cells, paraformaldehyde-fixed and non-fixed
T3 construct: the lung-type (A1) isoform is meant; also called HEK293-mCLDN18.1

[10] = target: T1, mouse claudin 18.2 (mCLDN18.2); assay: flow cytometry, HEK293-mCLDN18.2 cells, fixed and non-fixed
[11] = target: T2, human claudin 18.2 (hCLDN18.2); assay: flow cytometry on hCLDN18.2 low-expressing KATO III cells
Procedure: as §1

Row | Binder | FACS binding signal (read-out unnamed) [1] | FACS binding signal (read-out unnamed) [2] | FACS binding signal (read-out unnamed) [3] | FACS binding signal (read-out unnamed) [4] | FACS binding signal (read-out unnamed) [5] | FACS binding signal (read-out unnamed) [6] | EC50 [7] | Maximum induction fold [7] | Kd [8] | binding result [9] | binding result [10] | EC50 [11]
1 | B1 | 292 | 599 | 73.7 | 607 | 316 | 70.8 |  |  |  |  |  | 
2 | B2 | 411 | 589 | 103 | 673 | 419 | 90 |  |  |  |  |  | 
3 | B3 | 294 | 631 | 84.3 | 732 | 296 | 73.3 |  |  |  |  |  | 
4 | B4 | 289 | 638 | 83 | 746 | 341 | 75.6 | 0.000287 ng/mL | 40 fold | 0.048 nM |  |  | 
5 | B5 |  |  |  |  |  |  | 0.0074 ng/mL | 35 fold | 0.049 nM |  |  | 
6 | B6 | 242 | 589 | 66.8 | 636 | 291 | 59.2 |  |  |  |  |  | 
7 | B7 |  |  |  |  |  |  | 0.0195 ng/mL | 36.3 fold | 0.137 nM | no binding | binds | 
8 | B8 | 296 | 567 | 81.3 | 600 | 318 |  |  |  | 0.189 nM |  |  | 800 ng/mL
